The record followed here is patent US20220073621A1 (EUCURE BEIJING BIOPHARMA, published 2022).

Usually Kd stands for a measure of binding affinity in units of concentration. Broadly, the koff is the rate constant with which the complex falls apart. One may read the kon as the second-order rate constant of association.

Positions count from the first letter of the chain named.

Assay [1] addresses T1, human-mouse chimeric PD-L1 on CHO cells (human-mouse chimeric, UniProt Q9EP73 19-290 (mouse entry)).
T1 construct: expressed in CHO cells; also called chiPD-L1
T1 chain: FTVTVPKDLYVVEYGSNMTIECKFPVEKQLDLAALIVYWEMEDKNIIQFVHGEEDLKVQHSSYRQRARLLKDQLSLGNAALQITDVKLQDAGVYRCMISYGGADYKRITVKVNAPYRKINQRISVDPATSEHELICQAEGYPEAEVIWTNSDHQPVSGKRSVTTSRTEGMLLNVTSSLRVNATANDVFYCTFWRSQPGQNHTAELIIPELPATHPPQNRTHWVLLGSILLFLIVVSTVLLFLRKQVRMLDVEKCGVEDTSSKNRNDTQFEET
The assay is described as follows: flow cytometry, CHO-chiPD-L1 cells, Anti-mouse-IgGFc-FITC, antibody 1 µg/ml. From the text:
(§1) The rhesus monkey PD-L1 protein coding sequence (rmPD-L1, SEQ ID NO: 54), the mouse PD-L1 protein coding sequence (mPD-L1, SEQ ID NO: 53), and the human-mouse chimeric PD-L1 (the extracellular region of the mouse PD-L1 protein was replaced with human protein fragments) protein coding sequence (chiPD-L1, SEQ ID NO: 55) were transferred into CHO cells for protein expression and used for the antibody cross-reactivity testing.
(§2) The test was detailed as follows: a 96-well cell culture plate was used, and the above-mentioned CHO cells expressing different PD-L1 proteins (25 μl, 2×10⁴ cells/well) was added to each well, and then 25 μl of the ascites purified anti-PD-L1 antibodies (1 μg/ml) were added to each well. The mixture was incubated at 4° C. for 30 minutes. The 96-well cell culture plate was centrifuged at 1200 rpm for 5 minutes and washed twice with PBS. Subsequently, 50 μl of anti-mouse IgG Fc-FITC at 1:100 dilution was added to each well, and was incubated at 4° C. for 30 minutes. Subsequently, the 96-well cell culture plate was centrifuged at 1200 rpm for 5 minutes, and washed once with PBS. Then 200 μl of PBS was added to each well, and flow cytometry analysis was performed.

Assay [2] has as its target T2, Mouse PD-L1 on CHO cells (mouse, UniProt Q9EP73 19-290).
T2 construct: Expressed in CHO cells for the cross-reactivity test; also called mPD-L1; murine PD-L1 protein
The assay is described as follows: flow cytometry, CHO-mPD-L1 cells, Anti-mouse-IgGFc-FITC, antibody 1 µg/ml.
Text: as §1, §2
On the technique in general: Flow cytometry measures light scatter and fluorescence of single cells or particles in a stream.

The target of assay [3] is T2, Mouse PD-L1 on CHO cells. The assay is described as follows: flow cytometry on CHO cells expressing mPD-L1.
Text: as §1, §2

The target of assay [4] is T3, Rhesus monkey PD-L1 on CHO cells (rhesus monkey, UniProt Q9NZQ7 19-290 (human entry)).
T3 construct: Expressed in CHO cells for the cross-reactivity test; also called rmPD-L1; NP_001077358.1
T3 chain: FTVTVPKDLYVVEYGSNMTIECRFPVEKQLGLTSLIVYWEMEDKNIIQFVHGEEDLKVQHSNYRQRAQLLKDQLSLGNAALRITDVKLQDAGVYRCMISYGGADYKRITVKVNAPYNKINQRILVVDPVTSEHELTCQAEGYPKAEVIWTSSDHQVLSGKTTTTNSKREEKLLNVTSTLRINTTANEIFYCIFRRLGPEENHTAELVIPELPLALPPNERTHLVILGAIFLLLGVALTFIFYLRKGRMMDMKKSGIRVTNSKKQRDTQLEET
The assay is described as follows: flow cytometry, CHO-rmPD-L1 cells, Anti-mouse-IgGFc-FITC, antibody 1 µg/ml.
Text: as §1, §2

Assay [5] has as its target T2, Mouse PD-L1 on CHO cells. The assay is described as follows: flow cytometry, CHO-mPD-L1 cells, Anti-human IgG Fc-FITC, antibody 1 µg/ml.
Target sequence in this assay (Q9EP73 19-290 limits assumed): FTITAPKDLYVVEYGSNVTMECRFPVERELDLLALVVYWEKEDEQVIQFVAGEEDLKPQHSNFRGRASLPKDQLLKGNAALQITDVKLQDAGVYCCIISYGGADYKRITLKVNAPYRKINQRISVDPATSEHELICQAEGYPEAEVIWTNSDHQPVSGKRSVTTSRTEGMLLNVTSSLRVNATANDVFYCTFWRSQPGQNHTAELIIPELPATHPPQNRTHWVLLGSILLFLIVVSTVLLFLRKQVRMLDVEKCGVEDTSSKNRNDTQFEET
A further assay addresses T4, hPD-L1-His (human, UniProt Q9NZQ7 19-238).
T4 construct: Bought protein; also called hPD-L1-His (manufactured by Edison); not shown: His tag
Description: SPR (Biacore T200), antibody on Protein A chip, hPD-L1-His injected, 1:1 fit. As to the method: Subsequently, the binding affinity of the anti-PD-L1 chimeric antibody, humanized antibody, and marketed control antibody to hPD-L1-His (manufactured by Edison) were determined by surface plasmon resonance (Biacore T200 biosensor, Biacore, INC, Piscataway N.J.) equipped with pre-immobilized Protein A sensor chips.
The detection results were read after the chip was regenerated with pH 2.0 glycine (30 μl/min, 10-20 s). Kinetic association rates (kon) and dissociation rates (koff) were obtained simultaneously by fitting the data globally to a 1:1 Langmuir binding model (Karlsson, R. Roos, H. Fagerstam, L. Petersson, B., 1994. Methods Enzymology 6. 99-110) using Biacore T200 Evaluation Software 3.0. Affinities were deduced from the quotient of the kinetic rate constants (KD=koff/kon).
Background: SPR reads the build-up and loss of mass on a sensor chip optically.

T4 sequence (Q9NZQ7 19-238 limits assumed): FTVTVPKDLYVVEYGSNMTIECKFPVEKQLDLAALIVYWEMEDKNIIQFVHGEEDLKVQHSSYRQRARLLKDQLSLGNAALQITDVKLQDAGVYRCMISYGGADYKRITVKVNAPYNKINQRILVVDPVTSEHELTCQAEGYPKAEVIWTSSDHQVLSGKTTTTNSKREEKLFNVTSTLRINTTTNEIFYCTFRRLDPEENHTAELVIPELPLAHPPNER

B1: 08-3F2 (antibody, V domains shown)
VH: DVQLQESGPDLVKPSQTLSLTCTVTGYSITSGYNWHWIRQFPGNKLEWMGYIHHSSITNYNPSLKSRISITRDTSKNQFFLQLSSVTTEDTATFYCAREGYDYDWFAYWGQGTLVTVSA
VL: DIVLAQSPATLSVTPGDSVSLSCRASQSISNNLHWYQQKSHESPRLLIKYASQSISGIPSRFSGSGSGTDFTLSINSVETEDFGMYFCQQSKSWPFTFGSGTRLEIK
notes: Murine monoclonal antibody from hybridoma, purified from ascites
B1: the “% cells in the FITC-positive gate” value was determined as 88.3% in assay [1], 7.37% in the assay with Mouse PD-L1 on CHO cells [2] and 60.9% in assay [4]. Also, the binding result with Mouse PD-L1 on CHO cells [3] was “no binding (tested: 1 µg/ml)”.

B2: 33-10C9-mHvKv-IgG1 (antibody, V domains shown)
VH: QVQLQQPGAELVKPGSSVKLSCKASGYTFTTYYIYWVKQRPGQGLEWIGGINPYNGGTSFNEKFESKATLTVDISSSTAFMQLSSLTSEDSAVYYCTRDGNYVDYWGQGTTLTVSS
VL: QIVLTQSPAIMSASPGEKVTITCSASSTVSYVHWLQQKPDTSPKLWIYSTSNLASGVPARFSGSGSGTSYSLTISRMEAEDAATYYCQQRSSSPPTFGSGTKLEIK
B2: the “% cells in the FITC-positive gate” value with Mouse PD-L1 on CHO cells [5] was determined as 0.556%. Moreover, the binding result in the assay with Mouse PD-L1 on CHO cells [3] is “no binding (tested: 1 µg/ml)”.

B3: 23-2A6-mHvKv-IgG1 (antibody, V domains shown)
VH: QVQLKESGPGLVAPSQSLSITCTVSGFSLTSYDISWIRQPPGKGLEWLGAIWTGGGTNYNSAFMSRLSISKDNSKSQVFLKMNSLQTDDTAIYYCVRDPYYYAMDYWGQGTSVTVSS
VL: DIQMNQSPSSLSASLGDTITITCHASQNLNVWLSWYQQKPGNIPKLLIYKASNLHTGVPSRFSGSGSGTGFTLTISSLQPEDIATYYCQQGQSYPRTFGGGTKLEIK
Regarding B3, the “% cells in the FITC-positive gate” value with Mouse PD-L1 on CHO cells [5] is 0.886%. Besides, the binding result in the assay with Mouse PD-L1 on CHO cells [3] was “no binding (tested: 1 µg/ml)”.

B4: 07-6A11 (antibody, V domains shown)
VH: DVQLVESGGGLVQPGGSRKLSCAASGFTFSSFGMHWVRQAPEKGLEWVAYISSGSNTIYYADTVKGRFTISRDNPKNTLFLQMTSLRSEDTAIYYCTRNGYDGWYAMDYWGQGTSVTVSS
VL: QIVLTQSPAIMSASPGEKVTMTCSASSSVSYIHWFQQKSGTSPKRWIYDTSKLASGVPARFSGRGSGTSYSLTISSMEAEDAATYYCQQWSTNPFTFGSGTKLEIK
notes: as for B1
As for B4, the “% cells in the FITC-positive gate” value in assay [1] was determined as 77.4%; with Mouse PD-L1 on CHO cells [2], 4.56%; in assay [4], 51.4%. The binding result in the assay with Mouse PD-L1 on CHO cells [3] is on record as “no binding (tested: 1 µg/ml)”.

B5: 7E4-H1K1-IgG1 (antibody, V domains shown)
VH: QVQLVQSGAEVKKPGASVKVSCKASGFKFTDYAIHWVRQAPGQSLEWMGVISIYYGEASYNQKFKDRVTLTVDTSASTAYMELSSLRSEDTAVYYCAREDYYGSSSYFDYWGQGTLVTVSS
VL: DNQLTQSPSFLSASVGDRVTITCSASSSVSSSYLHWYQQKPGAAPKPLIHRTSNLASGVPSRFSGSGSGTEFTLTISSLQPEDFATYYCQQWSGYPYTFGGGTKLEIK
In the assay with hPD-L1-His, B5 gave a Kd of 26.5 nM, a dissociation rate constant (koff) of 0.00313 s⁻¹ and a kon of 118000 M⁻¹ s⁻¹.

B6: 7E4-H3K2-IgG1 (antibody, V domains shown)
VH: B5 VH with K12V, V20I, A24G, Q43K, R67K, V93I, V117L
VL: B5 VL with Q3V, I21M, A44S
With B6, in the assay with hPD-L1-His, the Kd is 19.3 nM, the koff was 0.00299 s⁻¹ and the kon was 155000 M⁻¹ s⁻¹.

B7: 7E4-H1K3-IgG1 (antibody, V domains shown)
VH: B5 VH
VL: B5 VL with D1E, Q3V, I21M, P41S, A44S, F72Y, L79V
In the assay with hPD-L1-His, B7 yielded a Kd of 13.3 nM, a koff of 0.0017 s⁻¹ and a kon of 128000 M⁻¹ s⁻¹.

B8: 7E4-H2K1-IgG1 (antibody, V domains shown)
VH: B5 VH with Q43K
VL: B5 VL
In the assay with hPD-L1-His, B8 came in with an equilibrium dissociation constant (Kd) of 27 nM, a koff of 0.00344 s⁻¹ and a kon of 128000 M⁻¹ s⁻¹.

B9: 7E4-H1K2-IgG1 (antibody, V domains shown)
VH: B5 VH
VL: B5 VL with Q3V, I21M, A44S
In the assay with hPD-L1-His, B9 registered a Kd of 19.8 nM, a koff of 0.0025 s⁻¹ and a kon of 126000 M⁻¹ s⁻¹.

B10: 7E4-H3K3-IgG1 (antibody, V domains shown)
VH: B5 VH with K12V, V20I, A24G, Q43K, R67K, V93I, V117L
VL: B5 VL with D1E, Q3V, I21M, P41S, A44S, F72Y, L79V
Turning to B10, in the assay with hPD-L1-His, the Kd turned out to be 14.5 nM, the koff turned out to be 0.00218 s⁻¹ and the kon is 150000 M⁻¹ s⁻¹.

B11: 7E4-H3K1-IgG1 (antibody, V domains shown)
VH: B5 VH with K12V, V20I, A24G, Q43K, R67K, V93I, V117L
VL: B5 VL
Take B11: in the assay with hPD-L1-His, the Kd was found to be 23.9 nM, the koff came out at 0.00352 s⁻¹ and the kon amounted to 147000 M⁻¹ s⁻¹.

B12: 7E4-H2K3-IgG1 (antibody, V domains shown)
VH: B5 VH with Q43K
VL: B5 VL with D1E, Q3V, I21M, P41S, A44S, F72Y, L79V
In the assay with hPD-L1-His, B12 returned a Kd of 12.7 nM, a koff of 0.00163 s⁻¹ and a kon of 128000 M⁻¹ s⁻¹.

B13: 24-1F4-mHvKv-IgG1 (antibody, V domains shown)
VH: EVQLRESGPSLVRPSQTLSLTCSVTGDSFTSGYWNWIRKFPGNELESMGYISYSGSTYYNPSLKSRISITRDTSKSQFYLQLSSVTAEDTATYYCARSEGWLLPFAYWGQGTLVTVSA
VL: DIVMSQSPSSLPVSVGEKVTMSCKSSQSLLYSSNQKNSLAWYQQKPGQSPKLLIYWASTRESGVPDRFTGSGSGTDFTLTISSVQAEDLSVYYCQQYYGYPFTFGSGTKLEIK
Take B13: the “% cells in the FITC-positive gate” value in the assay with Mouse PD-L1 on CHO cells [5] was found to be 15.5%. Also, the binding result in the assay with Mouse PD-L1 on CHO cells [3] was “no binding (tested: 1 µg/ml)”.

B14: 23-4A8-mHvKv-IgG1 (antibody, V domains shown)
VH: EVQLQESGPSLVKPSQTLSLTCSVTGDSITSGYWNWIRKFPGNKLEYMGYISYTGSTYYNPSLKSRFSITRDTSKNQYFLQLNSVTTEDTATYYCASYEGWLLPFAYWGQGTLVTVSA
VL: B13 VL with P12A, T20P, M21L, N37S, Q85K, S90A
With B14, the “% cells in the FITC-positive gate” value with Mouse PD-L1 on CHO cells [5] is 3.07%. Moreover, the binding result with Mouse PD-L1 on CHO cells [3] is “no binding (tested: 1 µg/ml)”.

B15: 17-7E4 (antibody, V domains shown)
VH: QVQLQQSGAELVRPGVSVKISCKGSGFKFTDYAIHWVKQSHAKSLEWIGVISIYYGEASYNQKFKDKATLTVDTSSSTAYMELARLTSEDSAIYYCAREDYYGSSSYFDYWGQGTALTVSS
VL: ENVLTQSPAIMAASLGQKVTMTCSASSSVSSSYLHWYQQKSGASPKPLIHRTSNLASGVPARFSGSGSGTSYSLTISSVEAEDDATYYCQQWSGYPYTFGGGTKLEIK
notes: as for B1
As for B15, the “% cells in the FITC-positive gate” value was found to be 67.8% in assay [1], 1.1% in the assay with Mouse PD-L1 on CHO cells [2] and 64.9% in assay [4]. For the same molecule, the binding result with Mouse PD-L1 on CHO cells [3] is “no binding (tested: 1 µg/ml)”.
